Measurements published in patent US11028127B2, “Peptides capable of reactivating p53 mutants” (Yeda Research and Development Co. Ltd., priority 2013, dated 2021).

Legend:
[1] = test system: WI-38 fibroblasts overexpressing R175H p53 (WI38-175); experiment: Crystal violet viability assay; format: cell-based; conditions: 48 hours; much more prominent than in mNoxa-i control cells
Protocol: FIGS. 13A and 13B are bar graphs illustrating the effect of various tested peptides on the viability of cells expressing Mut-p53, as determine by crystal violet assay. WI-38 fibroblasts expressing endogenous WT p53 were infected with retroviruses expressing either mouse Noxa shRNA (WI38-m-Noxa-i) as a nonspecific control or the R175H p53 mutant for stable overexpression of mutant p53 (WI38-175). The cells (WI38-m-Noxa-i or WI38-175) were seeded at 3000 cells per well in 96-well plates. Tested peptides were added to the cells. Different concentrations of etoposide (cytotoxic drug, 4′-Demethyl-epipodophyllotoxin 9-[4,6-O—(R)-ethylidene-beta-D-glucopyranoside], 4′-(dihydrogen phosphate) were used as positive control for cell death and as a standard reference curve to assess the effect of tested peptides. 48 hours after treatment, cells were washed with PBS to exclude dead cells and debris, and cells that remained attached to the plate were stained with crystal-violet for 30 minutes. Crystal violet was removed and cells were washed 4 times with PBS to remove residual crystal violet. Then, the stained cells were dissolved in 10% acetic acid and plates were taken for optical density measurement at 595 nM (optimal for crystal violet). The bar graphs of FIGS. 13A and 13B show the optical density reads at 595 nm, which reflect the number of cells in the plate after treatment, normalized to the non-treated (NT) samples.
Cells were cultured in 96 wells plates with 2500-4000 cells/well in 0.1 ml and incubated overnight at 37° C. in order to adhere to the plate. Serial dilutions of different peptides (0.5 μg/ml) were added in 0.1 ml aliquots and the plates incubated for additional 48 h at 37° C. Then medium was removed and cell lysis was determined by staining the cells with crystal violet (0.5%) in methanol/water (1:4, v/v), 50 μl each well, for 10 min, followed by 3 washes with PBS. Afterwards, 10% acetic acid (50 μl) was added to each well and shaken for 10 min. Then, automatic plate reading was performed at 595 nm.
An important indication for the reactivating peptides activity is their effect in-vivo on cancer cells that express Mut-p53. In particular, reactivating peptides that can cause specifically Mut-p53-dependent death of cancer cells, with minimal toxic effects on normal cells are desired. A crystal-violet based viability assay, in which crystal-violet is employed to stain cells that adhere to the plate and therefore the amount of dye is proportional to cell number was used to determine the effect of the various test peptides on Mut-p53-dependent death.
Cells were plated in 96-well plates, at calibrated density that allows them to grow for 48 hours without reaching confluence. Peptides are added 6 hours later. Different concentrations of etoposide (cytotoxic drug) were used as positive control for cell death and as a standard reference curve to assess the effect of tested peptides. 48 hours after treatment, cells were washed with PBS to exclude dead cells and debris, and cells that remained attached to the plate were stained with crystal-violet for 30 minutes. Crystal-violet was removed and cells were washed with PBS 4 times to eliminate remains of crystal-violet. Then, the stained cells were dissolved in 10% acetic acid and plates were taken for optical density measurement at 595 nM (specific to crystal-violet).
FIGS. 13A and 13B illustrate a representative experiment of screening performed on 128 synthesized peptides. In this experiment, WI-38 fibroblasts were used. These cells express endogenous WT p53 and were further infected with a virus expressing either mouse Noxa shRNA, as a nonspecific control or the R175H p53 mutant for stable overexpression of mutant p53. Both of these sub-lines (mNoxa or R175H p53) were seeded at 3000 cells per well and treated as described above. […]

[2] = biological target: T1, Mut-p53 (R175H p53) (Homo sapiens, UniProt P04637, R175H); experiment: p53/DNA binding ELISA kit (R&D), binding to p53-RE DNA; format: biochemical; conditions: H1299-R175H p53 cell extracts, vs background (NT)
T1 construct: a hot spot full length mutant p53 Mut-p53 R175H (R175H p53); expressed in transfected cells; host or cells: H1299 (p53-null) cells stably overexpressing R175H p53; cell extract
Description: A commercial p53/DNA binding kit (R&D) was used, according to manufacturer instructions. Briefly, 96 well plates were coated with anti-p53 antibody overnight. Cell extracts containing p53 were reacted with an oligonucleotide that contains a p53 consensus binding site, labeled with biotin, in the presence or absence (NT) of test peptides. WT p53 is expected to bind this DNA binding site as well as to the antibody coating the test wells of the plate. Excess p53 and oligos are washed away and streptavidin-HRP is used to quantify the amount of oligos in the well, which is proportional to the DNA bound by p53. TMB assay was performed to determine HRP levels (450 nm). The results are presented as relative absorbance (at 450 nm) (Y-Axis) of each tested sample. MCF7 and the H1299-Mut-p53 (ts) A135V cells serve as positive controls for WT p53.
For these experiments, a commercial p53/DNA binding kit of “R&D” (Cat-DYC1355-5 Lot-1273366FA) was used, in accordance with manufacturer guide lines. Briefly, 96 well plates are coated with anti-p53 antibody overnight. Cell extracts containing p53 are reacted with an oligonucleotide that contains a p53 consensus binding site (provided in the kit), labeled with biotin, in the presence or absenc.
e (NT) of test peptides. WT p53 is expected to bind this DNA binding site as well as to the antibody coating the test wells of the plate. Excess p53 and oligos were washed away and streptavidin-HRP was used to quantify the amount of oligos in the well, which is proportional to the DNA bound by p53. TMB assay was performed to determine HRP (ES001-1L-K) levels (450 nm).
To measure the effect of the tested peptides on DNA binding of Mut-p53, a commercial ELISA kit, (R&D Systems DYC1355-5, Lot-1273366FA), was used as a high-throughput assay to quantify p53 activation. This kit uses a 96-well plate format. The kit was used according to manufacturer's instructions. Wells were coated with anti-p53 antibody overnight. Cell extracts containing p53 were reacted with a biotin labeled oligonucleotide containing a p53 consensus binding site (included in the kit). WT p53 is expected to bind this oligo as well as the antibody coating the wells. Excess p53 and oligo were washed away in wash buffer (0.05% Tween 20 in PBS, pH 7.2-7.4; R&D Systems, Catalog #WA126). Then, streptavidin-HRP (R&D Systems, Part 890803, provided in the kit) was added for 15-45 min to quantify the amount of oligo in the well, which is proportional to the DNA bound by p53. If the addition of a peptide to Mut-p53 extracts increases ELISA reading compared to background, this peptide is considered as functionally effective and may be selected for further analysis. […] As with the conformational screening, MCF7 and the H1299-Mut-p53 (ts) A135V cells served as positive controls for WT p53. Extracts were added to the wells coated with αp53-Ab, and after several washing steps, streptavidin-HRP was added for 1 hour, and then plates were washed again and TMB (substrate to HRP) assay was performed.

[3] = biological target: T1, Mut-p53 (R175H p53); experiment: Sandwich ELISA for p53 conformation (PAb1620/PAb240 reactivity); format: biochemical; conditions: extract of H1299 cells overexpressing R175H p53; peptide 50 ng/ml, 2 hours
Protocol: To measure the conformational effect of the peptides on Mut-p53, a micro-titer plate was coated with either PAb240, PAb1620 or pAb421 (as a positive control and standard for total p53 protein, since the antibody used recognizes both WT and mutant conformations), overnight incubated, washed, blocked, and cell extracts (with or without peptides) were added for an additional 2 hours. After removal of extracts, plates were washed and incubated with the αp53-HRP conjugated Ab for the detection of p53 levels. A TMB (substrate of HRP) assay was performed and optical density was determined at 450 nm. WT p53 served as a positive control for reactivity with PAb1620, and Mut-p53 served as a negative control. The results are presented as the ratio of absorbance between the PAb1620 or PAb240 samples and the control […] sample. MCF7 and H1299-Mut-p53 (ts) A135V (TS) cells were used as positive controls for the WT p53 conformation (1620/240 ratio equals or exceeds 5:1).
96-well plates were coated using 3 different antibodies (1 type of antibody (Ab) in each well): PAb421 recognizes both conformations of p53 and binds to a C-terminus epitope; PAb240 recognizes mutant conformation of p53, binds to epitope within the core domain (amino acids 212-217) (Stephen, C. W. and D. P. Lane, Mutant conformation of p53. Precise epitope mapping using a filamentous phage epitope library. J. Mol. Biol., 1992. 225(3): p. 577-83) which is accessible to the Ab when the protein is partially denatured (for example, when the DBD is mutated); and PAb1620, which recognizes WT conformation of p53, binds to epitope with in the core domain (aa 156, 206-210), formed when folding is in WT conformation (Wang, P. L., F. Salt, and G. Winter, The ‘wild type’ conformation of p53: epitope mapping using hybrid proteins. Oncogene, 2001. 20(18): p. 2318-24).
Wells were incubated overnight (ON) with 100 μl Ab (5 μg/ml) in room temp (RT). The liquid was discarded, and the wells were washed 3 times with Phosphate buffered saline (PBS), 200 μl per each wash. Next, blocking with 200 μl of 5% bovine serum albumin (BSA) diluted in PBS in each well for 1.5 hours at room temperature (RT) was performed. Blocking buffer was discarded, followed by 3 washes in PBS as described above. Samples of mutant and WT p53 proteins (100 μl, 10 μg/ml), together with control peptides pCAP-710 (LPNPPER, SEQ ID NO:328) and pCAP-1220 ([…], SEQ ID NO:368) (5 μg/ml, Sigma Aldrich, or with test peptides 1-153 (5 μg/ml), were incubated for 1.5 hours together, and then added to the wells. Samples were rotated and incubated for 1 hour at RT. Samples were discarded, following 4 washes as described above, using Trisphosphate buffered saline (TPBS). Next, horseradish peroxidase (HRP) conjugated streptavidin p53 antibody (10 μg/ml HAF1355 (R&D)) was added to the wells and incubated at RT for 1 hour. After the plate was washed 3 times in TPBS, TMB substrate solution (50 μl each well, Thermo, (Cat. No. ES001-1L-K)) was added and incubated at 37° c. for 20 min. The reaction was stopped with 2M sulfuric acid (50 μl). The absorbance was measured at 450 nm with a spectrophotometer. Protein concentration was determined by dividing the absorbencies of each sample to the absorbance of Ab 421 samples.
The first screening strategy was based on ELISA. A version of sandwich ELISA was used to examine the effect of the lead test peptides on p53 conformation. To measure the conformational effect of the peptides on Mut-p53, a micro-titer plate was coated with PAb240, PAb1620 or pAb421 (as a positive control), and then the reactivity of p53 to these antibodies was examined. WT p53 served as a positive control for reactivity with PAb1620, and Mut-p53 served as a negative control. To examine the effect of a tested peptide it was added to a solution containing Mut-p53 and change in reactivity to either Ab was tested. […] Several ELISA experiments using different cell extracts were performed. […]

Sequence	reduction in cell numbers, R175H p53 expressing WI-38 cells [1]	binding of H1299-R175H p53 extracts to p53-RE DNA [2]	reactivity of R175H Mut-p53 towards PAb1620 and PAb240 (conformational change) [3]
ASWQALALYAAGW [pCAP-46]	significant reduction in cell numbers		
ATQHHYIK [pCAP-93]		elevate the binding of H1299-R175H p53 extracts to p53-RE DNA	
HSSHHHPVHSWN [pCAP-83]		elevate the binding of H1299-R175H p53 extracts to p53-RE DNA	
SFILFIRRGRLG [pCAP-60]	significant reduction in cell numbers		increased reactivity of R175H Mut-p53 towards PAb1620 and decreased reactivity towards PAb240
TLYLPHWHRH [pCAP-47]	significant reduction in cell numbers		increased reactivity of R175H Mut-p53 towards PAb1620 and decreased reactivity towards PAb240
WNHHHSTPHPAH [pCAP-97]	significant reduction in cell numbers	elevate the binding of H1299-R175H p53 extracts to p53-RE DNA	
YPTQGHLR [pCAP-36]	significant reduction in cell numbers		increased reactivity of R175H Mut-p53 towards PAb1620 and decreased reactivity towards PAb240
